Measurements as given in US20250145684A1 (IMMATICS BIOTECHNOLOGIES, published 2025).

target: T1, HLA-B*08:01 (human); assay: UV peptide exchange ELISA
T1 construct: MHC monomer first loaded with a UV-sensitive peptide that is cleaved by UV light and exchanged for the test peptide
Text: Candidate peptides for T cell based therapies according to the present invention were further tested for their MHC binding capacity (affinity). The individual peptide-MHC complexes were produced by UV-ligand exchange, where a UV-sensitive peptide is cleaved upon UV-irradiation and exchanged with the peptide of interest as analyzed. Only peptide candidates that can effectively bind and stabilize the peptide-receptive MHC molecules prevent dissociation of the MHC complexes. To determine the yield of the exchange reaction, an ELISA was performed based on the detection of the light chain (β2m) of stabilized MHC complexes. The assay was performed as generally described in Rodenko et al. (Rodenko et al., 2006).
96 well MAXISorp plates (NUNC) were coated over night with 2 ug/ml streptavidin in PBS at room temperature, washed 4× and blocked for 1 h at 37° C. in 2% BSA containing blocking buffer. Refolded HLA-A*02:01/MLA-001 monomers served as standards, covering the range of 15-500 ng/ml. Peptide-MHC monomers of the UV-exchange reaction were diluted 100-fold in blocking buffer. Samples were incubated for 1 h at 37° C., washed four times, incubated with 2 ug/ml HRP conjugated anti-β2m for 1 h at 37° C., washed again and detected with TMB solution that is stopped with […]. Absorption was measured at 450 nm. Candidate peptides that show a high exchange yield (preferably higher than 50%, most preferred higher than 75%) are generally preferred for a generation and production of antibodies or fragments thereof, and/or T cell receptors or fragments thereof, as they show sufficient avidity to the MHC molecules and prevent dissociation of the MHC complexes.

| Binder | peptide exchange yield [%] |
| --- | --- |
| EAFSRASL [EAFSRASL (SEQ ID NO: 37)] | 20 to 50 |
| DARCKLAEL [DARCKLAEL (SEQ ID NO: 26)] | 20 to 50 |
| DAKSKIEQI [DAKSKIEQI (SEQ ID NO: 39)] | 20 to 50 |
| KLYIHRVTL [KLYIHRVTL (SEQ ID NO: 232)] | 20 to 50 |
| DIYEVAVSL [DIYEVAVSL (SEQ ID NO: 226)] | 50 to 75 |
| SPNSLVTIL [SPNSLVTIL (SEQ ID NO: 235)] | 50 to 75 |
| HLTNRVLSL [HLTNRVLSL (SEQ ID NO: 44)] | 50 to 75 |
| DLVLKRCL [DLVLKRCL (SEQ ID NO: 24)] | ≥ 75 |
| GPRGPSSGHPL [GPRGPSSGHPL (SEQ ID NO: 245)] | 20 to 50 |
| EVYQKIIL [EVYQKIIL (SEQ ID NO: 38)] | 50 to 75 |
| EGVPPGTVL [EGVPPGTVL (SEQ ID NO: 243)] | 50 to 75 |
| LPLDSRYVTL [LPLDSRYVTL (SEQ ID NO: 237)] | 50 to 75 |
| VFRVGISF [VFRVGISF (SEQ ID NO: 234)] | 20 to 50 |
| DIKKTNESL [DIKKTNESL (SEQ ID NO: 23)] | 20 to 50 |
| GEKLLRPSL [GEKLLRPSL (SEQ ID NO: 231)] | 20 to 50 |
| IYRKKYIL [IYRKKYIL (SEQ ID NO: 34)] | 20 to 50 |
| ELFQRPVL [ELFQRPVL (SEQ ID NO: 35)] | 20 to 50 |
| IPLAIARL [IPLAIARL (SEQ ID NO: 238)] | 50 to 75 |
| SEVNKHETAL [SEVNKHETAL (SEQ ID NO: 248)] | 20 to 50 |
| LPYPPQKVV [LPYPPQKVV (SEQ ID NO: 224)] | 20 to 50 |
| SIQSRYISM [SIQSRYISM (SEQ ID NO: 3)] | 50 to 75 |
| HALPPYITVL [HALPPYITVL (SEQ ID NO: 244)] | 20 to 50 |
| QQIDRVVEV [QQIDRVVEV (SEQ ID NO: 249)] | 20 to 50 |
| STLKKSLEI [STLKKSLEI (SEQ ID NO: 236)] | 20 to 50 |
| RLLQKSKEL [RLLQKSKEL (SEQ ID NO: 246)] | 20 to 50 |
| SEPVMRVTL [SEPVMRVTL (SEQ ID NO: 239)] | 20 to 50 |
| SPRVKWTF [SPRVKWTF (SEQ ID NO: 31)] | 20 to 50 |

| Binder | peptide exchange yield [%] |
| --- | --- |
| HLHPKGREL [HLHPKGREL (SEQ ID NO: 25)] | 20 to 50 |
| DAAAFFKSV [DAAAFFKSV (SEQ ID NO: 251)] | 20 to 50 |
| DLQKKAQAL [DLQKKAQAL (SEQ ID NO: 30)] | 20 to 50 |
| DPKSRLKSL [DPKSRLKSL (SEQ ID NO: 28)] | 20 to 50 |
| DLKKLVDSL [DLKKLVDSL (SEQ ID NO: 43)] | 50 to 75 |
| TPEPSVHAL [TPEPSVHAL (SEQ ID NO: 247)] | 20 to 50 |
| QVMPKTGL [QVMPKTGL (SEQ ID NO: 4)] | 20 to 50 |
| RGALRTLSL [RGALRTLSL (SEQ ID NO: 41)] | 20 to 50 |
| DVKLVFVM [DVKLVFVM (SEQ ID NO: 233)] | 20 to 50 |
| SRFPGMSVL [SRFPGMSVL (SEQ ID NO: 227)] | 20 to 50 |
| IVKIKVQEL [IVKIKVQEL (SEQ ID NO: 36)] | 20 to 50 |
| DLRNKIIAA [DLRNKIIAA (SEQ ID NO: 46)] | 50 to 75 |
| WIGLRNLDL [WIGLRNLDL (SEQ ID NO: 33)] | 50 to 75 |
| NAYEAPSI [NAYEAPSI (SEQ ID NO: 241)] | 20 to 50 |
| ESMLKTTL [ESMLKTTL (SEQ ID NO: 40)] | 20 to 50 |
| ELFLHPVL [ELFLHPVL (SEQ ID NO: 29)] | 20 to 50 |
| VLRRKTLL [VLRRKTLL (SEQ ID NO: 42)] | 20 to 50 |
| TLRAYVLAL [TLRAYVLAL (SEQ ID NO: 228)] | 50 to 75 |
| RLKVALSTL [RLKVALSTL (SEQ ID NO: 45)] | 50 to 75 |
| AARAPPQAL [AARAPPQAL (SEQ ID NO: 250)] | 20 to 50 |
| KPQSLQLVL [KPQSLQLVL (SEQ ID NO: 242)] | 20 to 50 |
| KVIDRKVEL [KVIDRKVEL (SEQ ID NO: 240)] | 20 to 50 |
| DTHTNTYYL [DTHTNTYYL (SEQ ID NO: 229)] | 20 to 50 |
| DVYFHHVL [DVYFHHVL (SEQ ID NO: 230)] | 20 to 50 |
| NPYLKLVL [NPYLKLVL (SEQ ID NO: 32)] | 20 to 50 |
| DVSARKLRV [DVSARKLRV (SEQ ID NO: 223)] | 20 to 50 |
| MPKRAHWGA [MPKRAHWGA (SEQ ID NO: 225)] | 50 to 75 |
